Assay results as given in a protein production outcome set (Wang et al. 2014).

Test: label from the status in PepcDB records
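Further: failed if final PepcDB status was selected cloned or expressed and not failed if soluble or beyond.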

| Sequence | protein production |
| --- | --- |
| MAKKAMENGYKLILGSQSMARKQILAEMGYDFTIVTADIDEKAIRKEKPEDLVVTIAEAKANEIILKLGGENQFTQDSQPTLLITADTVVVYKGWDKAEVYFHEIPEHVIDDLIDDAITFKVAGGLMLEHPLISPFIDSVVGGVDTVMGLSKELTEKFINDVL | failed |
| MAKKENQQPDNHVGEVVSRSEQFIEKNMTKIGLVILGVFIIVAGIFAYKRFVSEPKAREAAAKVYLAEDKFIQELDSAALNGNGANEMGLLTVIKKYSGSDASNLAKAYAGICYYNLGEYQKAIDHLKGFSSKENMVAPSITRLIGDCYVQLKKYEEAVGYFEKAAAAASNDAITPGCLIKAGRVYEELKQYDKALAAYKQVKEKYYTSMEANTVEADIIRVKTKGAK | failed |
| MAKKKIVAVIQARMGSSRLPGKVLMTVAGKPLLEHIIDRLRRSRTLDDIVIATSDKPCDDPLVDFAQTRGVTLVRGSEDNVLLRFNKAAEEVDADVIIRVTGDAPLVDPEVMDRLVRTLLQEGAEYCTIEAGINSIHEGFCTFTRGALKRLMTEAPDDPVAIEHVTAYFIAHPDKFHIARIPVGNEHRFKGARLSVDTPADVQFFDELYRLLGVPAGDADIADVVRLLRNNPHLLQINQHVYQKKATDRSHKVLIRCDGDSRTGLGHVVRCLALAGELREKQGCGIIFAMASGEPGMKMVRQADFPLERQEDADEGEWMDGLISRHHPDVLILDIRNDLPVEKVDSWREDGILVVGIDDPTPRRLAADLLFYPPIPQISELNWNNFNGEICSGWEWVLLRKQFCAPCPPRNNNPPALLLTMGGSDPANFTVRVLRVLDELQNDFETIVVIGAGFVHEEDLQQFLSQARRHYRIEREVSDMASLMRQADLAIASFGVTAYELAASGVPAVYLCLTPDHARSASKFVDDRLAFSCGVLEECSNERIIESTLSLLDSRELRHEVGRRACATVDGYGATRIATKIVEKLERMHSSHGLEHHHHHH | failed |
| MAKKWQQRAALRRKRISFHRSTDTTSSSTAAEKGCFVVYTSDRIRFAFPISYLSNSVIQELLKISEEEFGIPTEGPITLPFDSVFLEYLIRLVQRRMDGDTEKALITSISSTRCSLPCSFQLQEHSSTRLVF | failed |
| MAKLHIPVMVDEVVHCLSPQKGQIFLDMTFGSGGHTKAILQKESDIVLYALDRDPTAYALAEHLSELYPKQIRAMLGQFSQAEALLMKAGVQPGTFDGVLMDLGCSSMQLDTPERGFSLRKDGSLDMRMDGGRSTGTCIYPKNIRGGEACQENRFSNCSGTQHLPHHQNPAACQHRCRSISSLCYLYTERLTTAIYPYCHQDFPGSSHICEQ | failed |
| MAKLHITTWGCQMNEYDSSKMADLLNSTHGLELTDKPEEADILLLNTCSIREKAQEKVFSQLGRWKNWKKDKPDLIIGVGGCVASQEGEHIRERAPFVDIVFGPQTLHRLPEMINQIRSGDRAVVDISFPEIEKFDRLPEPKAEGPTAFVSIMEGCNKYCSFCVVPYTRGEEVSRPVDDVLFEIAQLAEQGVREVNLLGQNVNAYRGETFDGGICTFAELLRLVAAIDGIDRLRYTTSHPIEFTDDIIEVYRDTPELVSFLHLPIQSGADRVLTMMKRNHTALEYKAIIRKLRAVRPNIQISSDFIVGFPGETAEDFEQTMKIIEQVNFDMSFSFIYSARPGTPASDLPDDVSENEKKDRLAHLQQRINHQAMQFSRLMLGTEQRILVEGPSKKDIMELTGRTETNRVVNFIGTPNMIGKFVDIKITDVYSNSLRGEVIRTEDQMGLRIVESASSVIARTRKEDDLGVGKYAVNLLEHHHHHH | failed |
| MAKLVTENISKRFKNQDVLKHINITLENNEVYGLLGINGAGKTTLMKIICGILQQDSGEIKLDNRPMTRNDLHKVGSLIETPATYNHLSAQDNLKIVCLNESVDFSEINSVLSLVNLNVDKKKKVKDFSLGMKQRLGIAMALIKKPEILVLDEPSNGLDPYGIQELRELLKLLTEQGTSIIISSHILSEIQVLADHIGIIHEGELKYQQRNNKDENLEEIFFKITKGDYK | failed |
| MAKPIRVLLYYKYVPIENAEQFAADHLAFCKSIGLKGRILVADEGINGTVSGEYETTQKYMDYVHSLPGMEDLWFKIDEEEEQAFKKMFVRYKKEIVHLGLEDNNFDSDINPLETTGAYLSPKEFKDALLDEDTVVLDTRNDYEYDLGHFRGAIRPDIRNFRELPQWVRDHKEEFMDKRVVVYCTGGVRCEKFSGWLVREGYKDVGQLHGGIVTYGKDPEVQGELWDGKLYVFDERIAVDVNHVDPIVVGKDWFDGTPCERYVNCGNPFCNRRILTSEENEDKYLRGCSHECRVHPRNRYVSENDLSQEEVVERLAAIGESLDVTPA | failed |
| MAKPNIDELNQILTSYQNTINDTLQLFEQVPSPTQDKLYWNDVLQISDHLSKQATIVGMLWITGEPPKAEAMKETMEAYFNALQGFLLHCHGSMVGAGTTLSSTIHASVKQIVDSSFRLLQGSVSLYEGSYEKGRKPTIPQLAGAVWEACSNLKNVPETNIKAIGRAMAHVAVSMKDVLREMKELKPASSSPDHNVSTNSDDDDLGDELSPEEFEVAKMVADIVSETLVVIKELIRAITCMIKLENPKDNSEFVDSFEKLLKLCQGIGVQIDELGACVYPPQEFGLMKQTVENMRESIGEIESDVKSSKNSSSEALSGSCRRLQSLIEHMVTELDTRIEAEVVYKMQNVTL | failed |
| MAKQATTSRLLPESMDNSGEFWLHAFESLVADLPEPAFVVDADGDITHWNQAVENILGLPASEAVGMNAYDVFGTEGQDETLAQEVIRTGEPVREDEFRSAERPDGTMAHARAVAIPLMGPGGDAIGALELLIDFSDIVEQREALQSLQSQMATDVESAVGEIGDSAAAVTEQSDDIKQMAGEQSENLDEVQSEVSGFSATVEEIASSAEEVSSQSGEARELAEESVETAEETIERVEDATESAEQVASDSTELRGHIEEIDEFVEVINDIADQTNMLALNANIEAARSNSDSDGFAVVADEIKELADESKQHADEVERIVGEVREMADSTAENVEETTDAIQQALTDIETVLDNQQAIVDATSETEQGIGEVAAATDDQAASAEEIASMIDEIAQRAAEVSESIDELADANETQHRLAQDLEENVERVERRLAEIME | failed |
| MAKRTPSIDTKNLTAVQLMELDACVRCGECVKWCPTYAASGGKPGLAPRDKILRWRQYMNKSYGLKAKLFGPQEVSPSELEEFKDDVHGCTTCGVCATVCEAGINTVEIWEAIRTNLVKKGIGPYGKQSAFPKLVGQYHNPYMKDQKDRLAWVPPDVKIEDKADIVYFTGCTAGYNQLALAFATSRVLNKLGIKFAMLGEEEWCCGSALIRTGQVHVDDVARELARHNVEALQKKGAKKVLFACAGCFRAAKIDWPRLLGKELPFEVIHITQFLADLIQADKIKWEKPINKTITYHDPCHLGRHVGVFNAPRYVLSHIPGVKFVEMDRSKEFQRCCGAGGGVKAGMPDLAVAMGESRVKDALETNADILSSACPFCKRNLSDGRDALKSDIVVEDIIELVAEALGLSTS | failed |
| MAKSMRCKRVKRLRAIRREIVEKESFTLTREDAKSAAIEAALAAPKLPVRQAPVSPFMEVATPSSESASASTTIANDSDEEMDDEKKNKSLKPIGKKLKKKFKLGMKNRRSKGVLRGKRN | failed |
| MAKTDRSQPSVLARIAAFRTGLSAEASAADYLERQGYRILARRFKTRCGEIDLVAQRDALVAFVEVKARGNVDDAAYAVTPRQQSRIVAAAEAWLSRHPEHAMSELRFDAILIAPNTAPRHLPGAFDATP | not failed |
| MAKTIYQPAPEAESNIREERSQRPNNRRRILLITVAASVILGLVAILFGGAILNPAATPESEPTMTATQIIPLVILVVMFVVATKWPLNIGVMGLVASFGVGYFMLGMTDKEILADFPANIVITIIGVTYFFSMAQRNGTVDIIVQTCVRLVRGKTLLLPWVFFLLAASLTALGTFSPAAVALLAPAAIGLAYESRIHPVLMGAFIINGAHAGGFSPLSVAGVLVHDIAVKNGFPISQGALFGASFALNLILSVLTVVLFALLGKLRDGATGQHADLDTTRTTRPHGQQILTLALIVAMLVCALGFHMPIGFVALSAGLLLALVNIKEHRTFIGGVSWSTVLLVAGMITYVSLLQHVGVIDTLAEQALALGAPLLIALVLCYVIGVGSAFASSTALLTAFIPLAGPLLATSSLSASGTVAALAIAATVVDVSPFSTDGALVVANAREDDRQRVYKQLMMYAGGVVLVAPALAWALLVPTGIM | failed |
| MAKTLGLHILADLYGVDADKIDRVEDIRELLEGAVKYANLTKISSHYYQFQPHGATGVVLLAESHISIHTWPEHGLATVDVYTCGDPSKAYRAMDYIITQLNPKRIDKQVHERGIVEEESNQSEAEKLRSILLQV | not failed |
| MALAGLLLGSALASSARAQSSDAAKPELEDALAVVDSLRRAGAFPAAQERLQSLREQHPERVPVLWRLVYTYADLGQSTDEENVRAQYYNNALNVAKAGLAADSTSARAHLAMAVAQGRAALDAGTRERIERSRAVKRHADRALAIDSTLDGAYHTRGRWHREVEDIGFVQRAIVKTVYGGLPESSIDQAVRDFRRALELRDRIFHHLELGKTYLQMDRPDAARRELRAVLDMPAEEPFDPRYKDEARRLLDDLD | failed |
| MALCLNPDCGQPNNDDANSSCATCGSPLLLRDRYRVVKAIGQGGFGATYLGQDLQLPGEPLCVIKQLLPQVQDPEIMLMARELFRREAKTLGRIGSHPQVPTLLDYFEAPEGFYLVQEYIRGKTLEQEVREQGVYSETATKQFLSELLPLLQYLHNQGVIHRDIKPANLLRRDIDRRLVLIDFGAVKDQVSQIQGGSGLTALTSFSVGTRGYAPPEQLAMRPVYSSDLYSLGVTCLFLMTGKGPQDLDYNPVTGELLWRNSVQVSDALATVLGKMLAASVRYRYQRAEQVMTALDLQPYHDSLIQGLSALPPGAPPIKPSSGRTGSGYPSPQERQAEAIRARRRDRSGNRPEQLADAQQIAAWTGGTSNTSGNNSAGRLSLNARDILATYQRGRRDFSQQPLNRIDLSESQLPSVNFQGAQLKESLFVAAQLERADFGQANLHRANLRRANLHQAYFGNADLSFANLQKADLSDAILSNANLRGTNLCGANLRGAKLTPVQLKMAKTNWWTILPDGRRGRLF | failed |
| MALDSPVGRRLGLVLQSRSNGVGPDQLFGDSELDHRAVCVIGEKGAERLAGPERGVVGRDSLCCVHTRPYGLWPLHWPRPAAATTLSRPAILTPRTATRTCMTEATGIVGEFLTLKEGTDADLLAMQCGDFYEFFAEDAEIVADELDLKVSQKSSHGSSYPMAGVPVDDLTPYVSALVERGYRVAIADQHETENGHAREITRVVTPGTHLETGDESAQYLAAVVREASRDSGDTYGIAATDVTTGQFQVTQLDDADAGEALTELYTFGPAEILPGPELRNDDEFLDRLRERTDAALTLHDSASFEPGRASHTVREQFGSETVDSVGIGDQNVAVRAAGAVLSYVEDTGVGTLAAVTRLQAYGERDHVDLDATTQRNLELTETMQGDSSGSLFDTIDHTVTAAGGRLLQQWLQRPRRNRAELQRRQSCVAALSEAAMARERIRETLSDAYDLERLAARATSGSADARDLRAVQETLALLGQVADAVTETERLAESPLADALDGADREAADSLAAELDSALVADPPGTVRQGGLFKRGHDDDLDEIIDEHEAALEWLETLPDREKERTGITHLSVDRNKTDGYYIQVGKSETDAVPEKYQHIKTLKNSKRYTTPELDEKERDVLRLEERRHDMEYEHFQRLRARVAEHATLLQDVGRTLAELDAFASLAVHAVENDWARPAVVDGNELSIEAGRHPVVEQTTEFVPNDLYMDDDRQFLIVTGPNMSGKSTYMRQAALITLLAQVGSFVPARSATVGLVDGIFTRVGALDELAQGRSTFMVEMQELSNILHSATEESLVILDEVGRGTATFDGISIAWAATEYIVNSIQSKTLFATHYHELTALGEELPTVENVHVAVDGEPRSAGSDGDVTFLRTVRDGPTDRSYGVHVADLAGVPEPVVDRSQAVLDRLRDDKAIEIRGSEQNDGGTTQAVFDLDSGQFRDGAAQSGGAAAGSTAEPVATDGDPEHAPGEAAAEGPKGDERAASLDSETEAVLSELTELDVNETPPVELMAKVQEWQAELDDE | failed |
